Measured values: article PMC4767726, “Molecular Probing of the HPV-16 E6 Protein Alpha Helix Binding Groove with Small Molecule Inhibitors” (PLoS ONE, 2016)

Key:
[1] = target: MBP-E6 F2V (human papillomavirus type 16); experiment: bead-based binding assay on filter plates (alkaline phosphatase luminescence); MBP-E6 held on amylose beads at indicated concentrations or 0.67 uM; E6AP-BAP added at 50 nM, 1-3 h, room temperature; 400 mM NaCl, 50 mM Tris-HCl pH 6.8, 0.1% milk, 1 mM DTT; amylose bead control subtracted
[2] = target: E6AP-BAP (aa 371-440) fusion protein (UniProt Q05086)
[3] = target: T1, E6AP-BAP (aa 371-440) fusion protein (UniProt Q05086 371-440); experiment: cell-based or functional assay
T1 sequence (looked up): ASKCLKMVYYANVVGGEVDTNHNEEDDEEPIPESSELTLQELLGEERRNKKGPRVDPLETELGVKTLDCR

“E6AP-BAP (aa 371-440) fusion protein (from UniProt Q05086 371-440) (domain or fragment)” showed a percent of the wild-type binding capacity (% of wild type) [1] of 70.

MBP-E6 R55A (natural protein) gave a p53 in vitro degradation by purified MBP-E6 in rabbit reticulocyte lysate, 2 h; activity against wild type [2] of 50%.

MBP-E6 R102A (natural protein) showed a p53-luciferase reporter level in C33A cells transfected with HPV-16 E6 expression vector (untagged, pLXSN), EC50 in ng of DNA [2] of 172 ng and a p53 in vitro degradation, 3 h incubation, 0.25 and 1 uM MBP-E6 R102A; decrease of p53 [2] of 50%.

B1: MBP-HPV-16 E6 (wild-type) (natural protein, human papillomavirus type 16, UniProt P03126 1-158, looked up)
chain: MHQKRTAMFQDPQERPRKLPQLCTELQTTIHDIILECVYCKQQLLRREVYDFAFRDLCIVYRDGNPYAVCDKCLKFYSKISEYRHYCYSLYGTTLEQQYNKPLCDLLIRCINCQKPLCPEEKQRHLDKKQRFHNIRGRWTGRCMSCCRSSRTRRETQL
In the case of B1, the “p53-luciferase reporter level in C33A cells transfected with HPV-16 E6 expression vector (untagged, pLXSN), EC50 in ng of DNA” value [3] is reported as 32 ng.
